The values that follow are results of earlier work, collected in publication PMC8146069.

Series [1] addresses r-hirudin (recombinant hirudin, type 1 or type 2) (UniProt P01050). As to the kind of experiment: pH profile of hirudin binding to thrombin (the measured quantity and the assay are not stated in this article).
Another series deals with His57 (UniProt position 406, VLTAAHCLLYP). As to the kind of experiment: kinetics.
In the next series the test system is Nterm16. As to the kind of experiment: kinetics.
[2] abbreviates: 25 °C (as for the free enzyme; inferred from the preceding sentence), µ = 0.1 (inferred from the preceding sentence), thrombin with small peptide substrate bound.
Setting [3] is: 25.0 ± 0.1 °C, thrombin reacting with NPMP.
Setting [4] is: 25.0 ± 0.1 °C, thrombin reacting with PPACK (2.2 × 10^−9 M, [I] << Ki).
Setting [5] is: 25.0 ± 0.1 °C, thrombin reacting with paraoxon.

r-hirudin (recombinant hirudin, type 1 or type 2), sequence (P01050 whole entry): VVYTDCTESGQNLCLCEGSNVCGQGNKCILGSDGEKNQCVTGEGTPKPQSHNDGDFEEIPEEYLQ

In the case of alpha-thrombin, the pKa, His57 of thrombin in series [1] is 7.1 pH units.

In the case of alpha-thrombin (Homo sapiens), the pKa is 6.16 ± 0.25 in the series with His57 (setting [2]); 6.7 ± 0.3 with His57 (25 °C, µ = 0.1, free thrombin); 8.0 ± 0.1 in the series with His57 (setting [3]); 7.3 ± 0.2 with His57 (setting [4]); 7.8 ± 0.2 in the series with His57 (setting [5]); 7.1 in the series with His57 (thrombin binding r-hirudin). Also, the pKa is listed as 8.95 ± 0.41 with Nterm16 (setting [2]); 8.4 ± 0.4 with Nterm16 (25 °C, µ = 0.1, free thrombin); 8.6 ± 0.2 in the series on Nterm16 (setting [3]); 8.8 ± 0.3 with Nterm16 (setting [4]); 9.3 ± 0.3 with Nterm16 (setting [5]).

As usually defined, the pKa is the pH at which an ionisable group is half protonated.
